We go through eleven variants from IntAct's records for PubMed 31515488.

Sequences and labels used below:
B1: Coiled-coil domain-containing protein 33 (Homo sapiens), Q8N5R6-5 (parent)
chain: MGEPGPPSPPAPKAAPGLIDSFSEMNNYRRAMQKMAEDILSLRRQASILEGENRILRSRLAQQEEEEGQGKASEAQNTVSMKQKLLLSELDMKKLRDRVQHLQNELIRKNDREKELLLLYQAQQPQAALLKQYQGKLQKMKALEETVRHQEKVIEKMERVLEDRLQDRSKPPPLNRQQGKPYTGFPMLSASGLPLGSMGENLPVELYSVLLAENAKLRTELDKNRHQQAPIILQQQALPVDPGELGAGGDLTERLQETHGPGHSECTETLPAQDLLSGTSDKFNLLAKLEHAQSRILSLESQLEDSARRWGREKQDLATRLQEQEKGFRHPSNSIIIEQPVSDPPGVAPRGSGGGAGSHRTPKVTGP
partner: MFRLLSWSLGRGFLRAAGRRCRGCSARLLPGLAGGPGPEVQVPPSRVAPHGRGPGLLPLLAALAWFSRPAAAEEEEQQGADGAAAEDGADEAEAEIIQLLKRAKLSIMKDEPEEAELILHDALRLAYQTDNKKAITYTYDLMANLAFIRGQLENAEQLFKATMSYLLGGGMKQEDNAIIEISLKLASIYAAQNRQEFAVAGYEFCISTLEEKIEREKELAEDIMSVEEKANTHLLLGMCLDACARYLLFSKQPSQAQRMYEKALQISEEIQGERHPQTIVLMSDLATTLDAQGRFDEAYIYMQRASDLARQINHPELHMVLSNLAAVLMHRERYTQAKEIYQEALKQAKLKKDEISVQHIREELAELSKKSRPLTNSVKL
B2: Macrophage scavenger receptor types I and II (Homo sapiens), P21757 (parent)
chain: MEQWDHFHNQQEDTDSCSESVKFDARSMTALLPPNPKNSPSLQEKLKSFKAALIALYLLVFAVLIPLIGIVAAQLLKWETKNCSVSSTNANDITQSLTGKGNDSEEEMRFQEVFMEHMSNMEKRIQHILDMEANLMDTEHFQNFSMTTDQRFNDILLQLSTLFSSVQGHGNAIDEISKSLISLNTTLLDLQLNIENLNGKIQENTFKQQEEISKLEERVYNVSAEIMAMKEEQVHLEQEIKGEVKVLNNITNDLRLKDWEHSQTLRNITLIQGPPGPPGEKGDRGPTGESGPRGFPGPIGPPGLKGDRGAIGFPGSRGLPGYAGRPGNSGPKGQKGEKGSGNTLTPFTKVRLVGGSGPHEGRVEILHSGQWGTICDDRWEVRVGQVVCRSLGYPGVQAVHKAAHFGQGTGPIWLNEVFCFGRESSIEECKIRQWGTRACSHSEDAGVTCTL
B3: Cytochrome P450 2S1 (Homo sapiens), Q96SQ9 (parent)
chain: MEATGTWALLLALALLLLLTLALSGTRARGHLPPGPTPLPLLGNLLQLRPGALYSGLMRLSKKYGPVFTIYLGPWRPVVVLVGQEAVREALGGQAEEFSGRGTVAMLEGTFDGHGVFFSNGERWRQLRKFTMLALRDLGMGKREGEELIQAEARCLVETFQGTEGRPFDPSLLLAQATSNVVCSLLFGLRFSYEDKEFQAVVRAAGGTLLGVSSQGGQTYEMFSWFLRPLPGPHKQLLHHVSTLAAFTVRQVQQHQGNLDASGPARDLVDAFLLKMAQEEQNPGTEFTNKNMLMTVIYLLFAGTMTVSTTVGYTLLLLMKYPHVQKWVREELNRELGAGQAPSLGDRTRLPYTDAVLHEAQRLLALVPMGIPRTLMRTTRFRGYTLPQGTEVFPLLGSILHDPNIFKHPEEFNPDRFLDADGRFRKHEAFLPFSLGKRVCLGEGLAKAELFLFFTTILQAFSLESPCPPDTLSLKPTVSGLFNIPPAFQLQVRPTDLHSTTQTR
partner: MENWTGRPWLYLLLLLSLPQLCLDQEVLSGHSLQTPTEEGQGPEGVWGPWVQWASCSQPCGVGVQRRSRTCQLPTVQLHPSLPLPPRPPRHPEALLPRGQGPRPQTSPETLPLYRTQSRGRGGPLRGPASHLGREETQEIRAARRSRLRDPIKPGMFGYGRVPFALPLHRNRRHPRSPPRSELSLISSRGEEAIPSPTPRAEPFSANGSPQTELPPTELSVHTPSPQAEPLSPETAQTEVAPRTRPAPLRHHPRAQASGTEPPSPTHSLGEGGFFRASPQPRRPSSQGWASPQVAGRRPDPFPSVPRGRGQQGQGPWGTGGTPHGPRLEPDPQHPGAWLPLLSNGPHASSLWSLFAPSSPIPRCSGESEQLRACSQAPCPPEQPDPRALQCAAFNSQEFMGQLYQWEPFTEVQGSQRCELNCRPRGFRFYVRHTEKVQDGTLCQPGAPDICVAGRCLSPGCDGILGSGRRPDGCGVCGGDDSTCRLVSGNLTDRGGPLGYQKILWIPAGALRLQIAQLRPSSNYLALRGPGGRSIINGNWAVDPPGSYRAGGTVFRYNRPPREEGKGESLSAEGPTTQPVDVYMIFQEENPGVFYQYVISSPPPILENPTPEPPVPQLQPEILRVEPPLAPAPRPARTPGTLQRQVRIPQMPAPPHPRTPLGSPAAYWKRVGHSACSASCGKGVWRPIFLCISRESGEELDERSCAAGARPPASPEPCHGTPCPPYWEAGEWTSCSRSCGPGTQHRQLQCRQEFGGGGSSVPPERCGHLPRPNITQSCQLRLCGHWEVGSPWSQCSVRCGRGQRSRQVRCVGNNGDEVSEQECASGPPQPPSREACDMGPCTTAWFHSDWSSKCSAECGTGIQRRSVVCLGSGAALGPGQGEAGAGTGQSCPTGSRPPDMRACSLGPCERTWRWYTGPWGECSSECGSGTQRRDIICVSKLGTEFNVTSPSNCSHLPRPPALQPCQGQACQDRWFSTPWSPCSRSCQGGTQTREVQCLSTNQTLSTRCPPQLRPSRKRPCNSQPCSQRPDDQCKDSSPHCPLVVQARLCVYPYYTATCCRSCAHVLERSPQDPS
B4: Notch homolog 2 N-terminal-like protein A (Homo sapiens), Q7Z3S9 (parent)
chain: MCVTYHNGTGYCKCPEGFLGEYCQHRDPCEKNRCQNGGTCVAQAMLGKATCRCASGFTGEDCQYSTSHPCFVSRPCLNGGTCHMLSRDTYECTCQVGFTGKECQWTDACLSHPCANGSTCTTVANQFSCKCLTGFTGQKCETDVNECDIPGHCQHGGTCLNLPGSYQCQCLQGFTGQYCDSLYVPCAPSPCVNGGTCRQTGDFTFECNCLPETVRRGTELWERDREVWNGKEHDEN
partner: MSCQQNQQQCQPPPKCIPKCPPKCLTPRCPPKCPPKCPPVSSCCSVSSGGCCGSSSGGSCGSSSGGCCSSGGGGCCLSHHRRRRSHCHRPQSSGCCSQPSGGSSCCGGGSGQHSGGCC
B5: Myotubularin-related protein 9 (Homo sapiens), Q96QG7 (parent)
chain: MEFAELIKTPRVDNVVLHRPFYPAVEGTLCLTGHHLILSSRQDNTEELWLLHSNIDAIDKRFVGSLGTIIIKCKDFRIIQLDIPGMEECLNIASSIEALSTLDSITLMYPFFYRPMFEVIEDGWHSFLPEQEFELYSSATSEWRLSYVNKEFAVCPSYPPIVTVPKSIDDEALRKVATFRHGGRFPVLSYYHKKNGMVIMRSGQPLTGTNGRRCKEDEKLINATLRAGKRGYIIDTRSLNVAQQTRAKGGGFEQEAHYPQWRRIHKSIERYHILQESLIKLVEACNDQTHNMDRWLSKLEASNWLTHIKEILTTACLAAQCIDREGASILIHGTEGTDSTLQVTSLAQIILEPRSRTIRGFEALIEREWLQAGHPFQQRCAQSAYCNTKQKWEAPVFLLFLDCVWQILRQFPCSFEFNENFLIMLFEHAYASQFGTFLGNNESERCKLKLQQKTMSLWSWVNQPSELSKFTNPLFEANNLVIWPSVAPQSLPLWEGIFLRWNRSSKYLDEAYEEMVNIIEYNKELQAKVNILRRQLAELETEDGMQESP
partner: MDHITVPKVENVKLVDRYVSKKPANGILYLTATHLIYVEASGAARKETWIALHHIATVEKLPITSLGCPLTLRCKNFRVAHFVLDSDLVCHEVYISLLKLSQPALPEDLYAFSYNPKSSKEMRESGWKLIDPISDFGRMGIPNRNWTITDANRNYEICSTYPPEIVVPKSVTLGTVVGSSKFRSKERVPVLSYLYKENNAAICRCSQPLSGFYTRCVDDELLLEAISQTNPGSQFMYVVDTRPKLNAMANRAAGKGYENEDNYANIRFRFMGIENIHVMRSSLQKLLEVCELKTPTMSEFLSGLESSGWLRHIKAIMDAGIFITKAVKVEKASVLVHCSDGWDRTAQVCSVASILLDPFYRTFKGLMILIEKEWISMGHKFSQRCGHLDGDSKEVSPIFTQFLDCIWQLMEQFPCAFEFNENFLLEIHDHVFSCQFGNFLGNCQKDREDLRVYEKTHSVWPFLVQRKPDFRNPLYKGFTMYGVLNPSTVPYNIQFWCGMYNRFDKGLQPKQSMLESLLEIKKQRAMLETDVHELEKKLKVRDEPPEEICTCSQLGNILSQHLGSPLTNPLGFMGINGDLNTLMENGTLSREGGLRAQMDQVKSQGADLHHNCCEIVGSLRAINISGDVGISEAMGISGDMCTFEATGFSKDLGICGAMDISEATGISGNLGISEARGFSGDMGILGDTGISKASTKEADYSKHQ
B6: E3 ubiquitin-protein ligase TRAIP (Homo sapiens), Q9BWF2 (parent)
chain: MPIRALCTICSDFFDHSRDVAAIHCGHTFHLQCLIQWFETAPSRTCPQCRIQVGKRTIINKLFFDLAQEEENVLDAEFLKNELDNVRAQLSQKDKEKRDSQVIIDTLRDTLEERNATVVSLQQALGKAEMLCSTLKKQMKYLEQQQDETKQAQEEARRLRSKMKTMEQIELLLQSQRPEVEEMIRDMGVGQSAVEQLAVYCVSLKKEYENLKEARKASGEVADKLRKDLFSSRSKLQTVYSELDQAKLELKSAQKDLQSADKEIMSLKKKLTMLQETLNLPPVASETVDRLVLESPAPVEVNLKLRRPSFRDDIDLNATFDVDTPPARPSSSQHGYYEKLCLEKSHSPIQDVPKKICKGPRKESQLSLGGQSCAGEPDEELVGAFPIFVRNAILGQKQPKRPRSESSCSKDVVRTGFDGLGGRTKFIQPTDTVMIRPLPVKPKTKVKQRVRVKTVPSLFQAKLDTFLWS

One assay covers variants of B1. The following applies: with ttc19_human TTC19, Q6DKK2.
Regarding G196R, the “effect of a mutation on the interaction” value was “with no effect”.

The variants in a further assay derive from B2. The following applies: with sc22a_human SEC22A.
In the case of P275A, the “effect of a mutation on the interaction” value is recorded as “with no effect”. Same read-out and setting: the entry for V113A is “with no effect”; for P346L it is “with no effect”.

Another assay covers variants of B2. Conditions: with lerl1_human LEPROTL1, O95214.
Chain of lerl1_human LEPROTL1, O95214 (O95214 whole entry): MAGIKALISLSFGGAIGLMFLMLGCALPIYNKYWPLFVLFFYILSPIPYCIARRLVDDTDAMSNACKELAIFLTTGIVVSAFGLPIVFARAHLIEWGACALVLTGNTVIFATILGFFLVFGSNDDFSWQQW
Regarding P286T, the “effect of a mutation on the interaction” value is recorded as “with no effect”.

The variants in a further assay derive from B3. Conditions: with atl4_human ADAMTSL4, Q6UY14.
As to R166H, the “effect of a mutation on the interaction” value is “disrupting interaction strength”.

The next assay covers variants of B4. Conditions: with lce1b_human LCE1B.
For A115T, the “effect of a mutation on the interaction” value was “with no effect”.

With R74Q, the “effect of a mutation on the interaction” value is given as “with no effect”.

The variants in another assay derive from B5. Conditions: with mtmr8_human MTMR8, Q96EF0.
As for S126C, the “effect of a mutation on the interaction” value was “with no effect”.

The variants in another assay derive from B5. Conditions: with mtmr8_human MTMR8, Q96EF0. This is another data set of the same source.
As to F127I, the “effect of a mutation on the interaction” value is “with no effect”.

In the next assay the parent is B6. Conditions: with mare2_human MAPRE2, Q15555.
Chain of mare2_human MAPRE2, Q15555 (Q15555 whole entry): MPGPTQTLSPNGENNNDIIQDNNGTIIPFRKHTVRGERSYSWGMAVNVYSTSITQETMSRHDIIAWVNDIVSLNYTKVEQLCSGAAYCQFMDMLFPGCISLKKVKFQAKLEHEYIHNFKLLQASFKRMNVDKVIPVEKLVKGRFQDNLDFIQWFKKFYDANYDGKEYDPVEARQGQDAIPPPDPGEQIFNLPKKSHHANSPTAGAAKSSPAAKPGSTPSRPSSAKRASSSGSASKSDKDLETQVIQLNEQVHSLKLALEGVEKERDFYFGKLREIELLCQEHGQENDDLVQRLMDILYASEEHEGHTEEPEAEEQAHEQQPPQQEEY
Turning to Q428H, the “effect of a mutation on the interaction” value is given as “with no effect”.
